Like-named read-outs stand apart in the source and are kept apart here.
Columns and labels:
human ROR1 protein [1] = target: T1, human ROR1 protein (human, UniProt Q01973 30-937); test: flow cytometry, Alexa-647-4A5 against IgG2b isotype control, ZAP-70-positive CLL cases (N=33)
T1 construct: Full-length ROR1 on CHO-ROR1 transfectants, CLL cells, tumour cell lines and tissues, or in their lysates (immunoprecipitation, immunoblot); also called CHO-ROR1 (CHO cells transfected to express human ROR1); ROR1 on CLL cells

human ROR1 protein [2] = target: T1, human ROR1 protein; test: flow cytometry on CD5-negative, CD10+, CD19+ marrow B lymphocyte precursors (N=9 samples)
human ROR1 protein [3] = target: T1, human ROR1 protein; test: flow cytometry, Alexa-647-4A5 against IgG2b isotype control, ZAP-70-negative CLL cases (N=36)
human ROR1 protein [4] = target: T1, human ROR1 protein

T1 sequence (Q01973 30-937 limits assumed): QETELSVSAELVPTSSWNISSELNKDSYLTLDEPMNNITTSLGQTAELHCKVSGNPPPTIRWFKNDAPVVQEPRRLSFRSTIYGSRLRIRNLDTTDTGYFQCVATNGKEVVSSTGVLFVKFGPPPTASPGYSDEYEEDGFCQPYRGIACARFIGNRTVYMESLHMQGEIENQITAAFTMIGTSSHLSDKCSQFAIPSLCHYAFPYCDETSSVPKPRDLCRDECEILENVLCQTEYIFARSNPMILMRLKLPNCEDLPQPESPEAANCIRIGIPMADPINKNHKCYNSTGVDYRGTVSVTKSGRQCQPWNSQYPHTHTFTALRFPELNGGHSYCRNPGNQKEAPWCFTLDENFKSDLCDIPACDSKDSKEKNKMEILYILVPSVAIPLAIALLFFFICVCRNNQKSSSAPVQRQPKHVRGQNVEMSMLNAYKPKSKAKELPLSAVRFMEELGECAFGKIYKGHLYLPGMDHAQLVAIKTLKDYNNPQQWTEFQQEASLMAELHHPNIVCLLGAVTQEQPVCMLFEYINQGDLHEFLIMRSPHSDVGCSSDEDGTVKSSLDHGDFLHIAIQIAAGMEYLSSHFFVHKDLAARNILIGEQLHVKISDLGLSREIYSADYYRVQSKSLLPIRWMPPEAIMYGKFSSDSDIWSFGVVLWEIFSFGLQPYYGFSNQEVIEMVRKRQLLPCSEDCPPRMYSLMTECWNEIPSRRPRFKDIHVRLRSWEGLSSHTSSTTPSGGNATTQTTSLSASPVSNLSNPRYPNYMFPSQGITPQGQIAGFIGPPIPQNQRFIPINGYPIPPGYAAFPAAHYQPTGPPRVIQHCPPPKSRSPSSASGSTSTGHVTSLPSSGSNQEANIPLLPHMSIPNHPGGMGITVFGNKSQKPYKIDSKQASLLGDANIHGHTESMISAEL

average MFIR (human ROR1 protein [1]): 12 ratio
median MFIR (human ROR1 protein [1]): 12.2 ratio
MFI ratio (MFIR) (human ROR1 protein [2]): 6.3 ratio
average MFIR (human ROR1 protein [3]): 12.4 ratio
median MFIR (human ROR1 protein [3]): 12 ratio
MFI ratio (MFIR) (human ROR1 protein [4]): 10 ratio
B1: 4A5 anti-ROR1 mAb (antibody, V domains shown)
VH: EVKLVESGGGLVKPGGSLKLSCAASGFTFSSYAMSWVRQIPEKRLEWVASISRGGTTYYPDSVKGRFTISRDNVRNILYLQMSSLRSEDTAMYYCGRYDYDGYYAMDYWGQGTSVTVSS
VL: DIKMTQSPSSMYASLGERVTITCKASPDINSYLSWFQQKPGKSPKTLIYRANRLVDGVPSRFSGGGSGQDYSLTINSLEYEDMGIYYCLQYDEFPYTFGGGTKLEMK
